In article PMC8571288:

Assays:
SNAP649-CST = SNAP649-CST (Homo sapiens, UniProt Q2NKJ3;Q9H668;Q86WV5 1-1217;1-368;1-123); experiment: CoSMoS; EGFP-RPA-coated DNA, 50 mM KCl, 13.5 nM; smFRET: 25 mM Tris-HCl pH 7.5, 0.5 mM EDTA, 10% glycerol, 50 or 150 mM KCl (temperature not stated); pull-down: 35 mM Tris-HCl pH 7.5, 10% glycerol, 0.01% Igepal, 1 mM 2-ME, 1 mM ATP, 2.5 mM MgCl2, 50 or 150 mM KCl, 37 C; EMSA: 35 mM Tris-HCl pH 7.5, 1 mM DTT, 2.5 mM MgCl2, 100 ng/uL BSA, 50 mM KCl, 37 C; conditions: protein: recombinant; tags: SNAP (SNAP-Surface 649 label); copies: 1;1;1; label: 5' Cy3 and 3' biotin on Oligo 10; 3' overhang 80 nt
Sequence of SNAP649-CST (Q2NKJ3 whole entry, chain 1 of 3): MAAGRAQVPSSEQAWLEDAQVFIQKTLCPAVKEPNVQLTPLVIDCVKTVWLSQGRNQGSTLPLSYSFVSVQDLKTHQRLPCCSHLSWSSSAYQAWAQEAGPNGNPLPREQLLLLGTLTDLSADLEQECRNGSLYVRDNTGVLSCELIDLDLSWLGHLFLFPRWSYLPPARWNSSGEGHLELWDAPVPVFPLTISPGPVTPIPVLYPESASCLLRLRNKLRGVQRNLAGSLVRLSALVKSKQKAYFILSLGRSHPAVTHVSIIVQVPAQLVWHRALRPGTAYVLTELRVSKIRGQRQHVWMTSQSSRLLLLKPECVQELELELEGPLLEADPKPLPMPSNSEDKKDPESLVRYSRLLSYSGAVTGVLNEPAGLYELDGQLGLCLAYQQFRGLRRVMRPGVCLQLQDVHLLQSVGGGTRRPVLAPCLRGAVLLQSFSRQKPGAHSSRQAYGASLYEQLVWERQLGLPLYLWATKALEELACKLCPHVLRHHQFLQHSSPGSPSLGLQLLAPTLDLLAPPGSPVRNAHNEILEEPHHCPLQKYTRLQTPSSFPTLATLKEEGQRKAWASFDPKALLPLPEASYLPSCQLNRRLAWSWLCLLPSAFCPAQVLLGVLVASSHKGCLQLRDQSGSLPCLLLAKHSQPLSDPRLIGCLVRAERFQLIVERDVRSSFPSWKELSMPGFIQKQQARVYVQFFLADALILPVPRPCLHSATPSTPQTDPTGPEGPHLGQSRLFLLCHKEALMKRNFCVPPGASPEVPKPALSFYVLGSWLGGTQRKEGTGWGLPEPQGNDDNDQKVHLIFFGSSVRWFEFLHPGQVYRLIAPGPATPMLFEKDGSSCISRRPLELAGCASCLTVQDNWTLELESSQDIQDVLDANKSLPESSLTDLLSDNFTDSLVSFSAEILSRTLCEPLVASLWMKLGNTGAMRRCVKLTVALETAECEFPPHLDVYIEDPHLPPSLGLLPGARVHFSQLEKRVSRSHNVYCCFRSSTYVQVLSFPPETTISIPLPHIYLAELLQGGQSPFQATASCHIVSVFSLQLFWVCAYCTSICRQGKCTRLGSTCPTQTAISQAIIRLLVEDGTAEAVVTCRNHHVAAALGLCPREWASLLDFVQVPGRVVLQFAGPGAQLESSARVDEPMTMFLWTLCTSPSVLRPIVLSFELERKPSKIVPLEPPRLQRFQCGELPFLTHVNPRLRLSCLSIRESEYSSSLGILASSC
Sequence of SNAP649-CST (Q9H668 whole entry, chain 2 of 3): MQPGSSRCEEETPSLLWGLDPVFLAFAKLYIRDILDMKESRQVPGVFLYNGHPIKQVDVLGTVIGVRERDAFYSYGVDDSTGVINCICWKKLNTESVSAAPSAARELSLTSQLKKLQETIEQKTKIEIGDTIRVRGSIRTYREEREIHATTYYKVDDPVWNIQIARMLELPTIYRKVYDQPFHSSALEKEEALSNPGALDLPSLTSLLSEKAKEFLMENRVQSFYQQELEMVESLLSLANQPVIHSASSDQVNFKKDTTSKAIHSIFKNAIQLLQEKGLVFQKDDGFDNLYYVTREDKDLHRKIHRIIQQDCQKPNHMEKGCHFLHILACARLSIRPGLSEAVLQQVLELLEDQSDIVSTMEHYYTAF
Sequence of SNAP649-CST (Q86WV5 whole entry, chain 3 of 3): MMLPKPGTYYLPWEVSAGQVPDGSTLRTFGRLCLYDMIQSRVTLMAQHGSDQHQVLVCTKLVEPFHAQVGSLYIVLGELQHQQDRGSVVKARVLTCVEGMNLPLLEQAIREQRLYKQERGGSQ

EGFP-RPA = EGFP-RPA (Homo sapiens, UniProt P27694;P15927;P35244 1-616;1-270;1-121); experiment: CoSMoS; 50 mM KCl, 10 nM; ~85% of DNA foci RPA-bound; 1-4 RPA per DNA; smFRET: 25 mM Tris-HCl pH 7.5, 0.5 mM EDTA, 10% glycerol, 50 or 150 mM KCl (temperature not stated); pull-down: 35 mM Tris-HCl pH 7.5, 10% glycerol, 0.01% Igepal, 1 mM 2-ME, 1 mM ATP, 2.5 mM MgCl2, 50 or 150 mM KCl, 37 C; EMSA: 35 mM Tris-HCl pH 7.5, 1 mM DTT, 2.5 mM MgCl2, 100 ng/uL BSA, 50 mM KCl, 37 C; conditions: protein: recombinant; tags: EGFP; copies: 1;1;1; label: 5' Cy3 and 3' biotin on Oligo 10; 3' overhang 80 nt
Sequence of EGFP-RPA (P27694 whole entry, chain 1 of 3): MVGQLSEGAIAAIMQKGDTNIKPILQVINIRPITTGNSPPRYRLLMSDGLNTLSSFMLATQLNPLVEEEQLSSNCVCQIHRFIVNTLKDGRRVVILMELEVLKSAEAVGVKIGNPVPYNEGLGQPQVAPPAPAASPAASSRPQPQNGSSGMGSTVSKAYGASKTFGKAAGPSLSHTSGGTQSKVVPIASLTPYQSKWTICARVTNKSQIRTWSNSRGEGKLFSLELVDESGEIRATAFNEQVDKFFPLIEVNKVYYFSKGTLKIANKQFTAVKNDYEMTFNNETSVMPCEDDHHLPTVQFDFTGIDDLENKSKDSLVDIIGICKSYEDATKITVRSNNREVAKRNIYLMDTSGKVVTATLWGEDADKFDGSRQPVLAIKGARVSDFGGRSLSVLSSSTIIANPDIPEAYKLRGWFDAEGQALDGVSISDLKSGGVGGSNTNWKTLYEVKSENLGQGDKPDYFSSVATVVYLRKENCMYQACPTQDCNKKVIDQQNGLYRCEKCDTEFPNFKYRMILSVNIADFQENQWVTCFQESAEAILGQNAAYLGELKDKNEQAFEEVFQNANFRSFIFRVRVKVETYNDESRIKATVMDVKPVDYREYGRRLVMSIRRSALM
Sequence of EGFP-RPA (P15927 whole entry, chain 2 of 3): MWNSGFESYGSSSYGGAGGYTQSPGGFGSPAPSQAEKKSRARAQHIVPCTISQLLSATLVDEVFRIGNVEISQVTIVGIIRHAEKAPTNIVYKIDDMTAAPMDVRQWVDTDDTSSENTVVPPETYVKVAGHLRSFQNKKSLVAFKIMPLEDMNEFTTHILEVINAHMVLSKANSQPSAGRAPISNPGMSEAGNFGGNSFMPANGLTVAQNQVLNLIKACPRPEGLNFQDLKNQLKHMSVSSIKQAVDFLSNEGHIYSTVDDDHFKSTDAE
Sequence of EGFP-RPA (P35244 whole entry, chain 3 of 3): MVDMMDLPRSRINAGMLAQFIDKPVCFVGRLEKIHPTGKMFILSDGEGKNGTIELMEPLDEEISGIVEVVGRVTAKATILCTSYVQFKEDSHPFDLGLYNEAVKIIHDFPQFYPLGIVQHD

RAD51 [1] = molecular target: T1, RAD51 (Homo sapiens, UniProt Q06609 1-339); experiment: pull-down; RPA-coated DNA plus CST; smFRET: 25 mM Tris-HCl pH 7.5, 0.5 mM EDTA, 10% glycerol, 50 or 150 mM KCl (temperature not stated); pull-down: 35 mM Tris-HCl pH 7.5, 10% glycerol, 0.01% Igepal, 1 mM 2-ME, 1 mM ATP, 2.5 mM MgCl2, 50 or 150 mM KCl, 37 C; EMSA: 35 mM Tris-HCl pH 7.5, 1 mM DTT, 2.5 mM MgCl2, 100 ng/uL BSA, 50 mM KCl, 37 C; conditions: protein: recombinant; chain copies: 10; label: 5' biotin, on streptavidin beads
T1 sequence (Q06609 whole entry): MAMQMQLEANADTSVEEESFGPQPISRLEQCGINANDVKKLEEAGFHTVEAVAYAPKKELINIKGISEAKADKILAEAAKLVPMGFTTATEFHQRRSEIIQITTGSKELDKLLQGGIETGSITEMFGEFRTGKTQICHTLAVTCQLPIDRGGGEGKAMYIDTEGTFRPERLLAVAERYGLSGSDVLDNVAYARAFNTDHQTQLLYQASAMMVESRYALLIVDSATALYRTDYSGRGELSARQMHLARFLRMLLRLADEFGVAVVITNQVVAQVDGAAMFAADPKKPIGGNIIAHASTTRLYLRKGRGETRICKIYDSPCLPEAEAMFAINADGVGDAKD

[2] = molecular target: CST complex (CTC1-STN1-TEN1) (Homo sapiens, UniProt Q2NKJ3;Q9H668;Q86WV5 1-1217;1-368;1-123); experiment: pull-down; RPA-coated DNA, 50 mM KCl; smFRET: 25 mM Tris-HCl pH 7.5, 0.5 mM EDTA, 10% glycerol, 50 or 150 mM KCl (temperature not stated); pull-down: 35 mM Tris-HCl pH 7.5, 10% glycerol, 0.01% Igepal, 1 mM 2-ME, 1 mM ATP, 2.5 mM MgCl2, 50 or 150 mM KCl, 37 C; EMSA: 35 mM Tris-HCl pH 7.5, 1 mM DTT, 2.5 mM MgCl2, 100 ng/uL BSA, 50 mM KCl, 37 C; conditions: protein: recombinant; tags: FLAG-CTC1, TEN1-His6; copies: 1;1;1; label: 5' biotin, on streptavidin beads
Sequence of CST complex (CTC1-STN1-TEN1) (Q2NKJ3 whole entry, chain 1 of 3): as the sequence (Q2NKJ3 whole entry, chain 1 of 3) above
Sequence of CST complex (CTC1-STN1-TEN1) (Q9H668 whole entry, chain 2 of 3): as the sequence (Q9H668 whole entry, chain 2 of 3) above
Sequence of CST complex (CTC1-STN1-TEN1) (Q86WV5 whole entry, chain 3 of 3): as the sequence (Q86WV5 whole entry, chain 3 of 3) above

RPA complex = RPA complex (Homo sapiens, UniProt P27694;P15927;P35244 1-616;1-270;1-121); experiment: pull-down; 50 mM KCl; unchanged by CST; smFRET: 25 mM Tris-HCl pH 7.5, 0.5 mM EDTA, 10% glycerol, 50 or 150 mM KCl (temperature not stated); pull-down: 35 mM Tris-HCl pH 7.5, 10% glycerol, 0.01% Igepal, 1 mM 2-ME, 1 mM ATP, 2.5 mM MgCl2, 50 or 150 mM KCl, 37 C; EMSA: 35 mM Tris-HCl pH 7.5, 1 mM DTT, 2.5 mM MgCl2, 100 ng/uL BSA, 50 mM KCl, 37 C; conditions: protein: recombinant; copies: 1;1;1; label: 5' biotin, on streptavidin beads
Sequence of RPA complex (P27694 whole entry, chain 1 of 3): as the sequence (P27694 whole entry, chain 1 of 3) above
Sequence of RPA complex (P15927 whole entry, chain 2 of 3): as the sequence (P15927 whole entry, chain 2 of 3) above
Sequence of RPA complex (P35244 whole entry, chain 3 of 3): as the sequence (P35244 whole entry, chain 3 of 3) above

RAD51 [3] = molecular target: T1, RAD51; experiment: negative-stain EM; 150 mM KCl; naked DNA, median filament 96.41 nm; smFRET: 25 mM Tris-HCl pH 7.5, 0.5 mM EDTA, 10% glycerol, 50 or 150 mM KCl (temperature not stated); pull-down: 35 mM Tris-HCl pH 7.5, 10% glycerol, 0.01% Igepal, 1 mM 2-ME, 1 mM ATP, 2.5 mM MgCl2, 50 or 150 mM KCl, 37 C; EMSA: 35 mM Tris-HCl pH 7.5, 1 mM DTT, 2.5 mM MgCl2, 100 ng/uL BSA, 50 mM KCl, 37 C; conditions: protein: recombinant; chain copies: 10

B1: 80-nt ssDNA overhang (Oligo 9+10) (mixed)
DNA 1: TGGCGACGGCAGCGAGGCTTATGTTCATTTTTTATATCCTTTACTTTATTTTCTCTGTTTATTCATTTACTTATTTTGTATTATCCTTATCTTATTTA
DNA 2: GCCTCGCTGCCGTCGCCA
**Q.** Does B1 bind (SNAP649-CST)?
**A.** binds

**Q.** Does B1 bind (EGFP-RPA)?
**A.** binds

B2: 80-nt ssDNA, biotinylated Oligo 1 (ssDNA)
DNA: TTATGTTCATTTTTTATATCCTTTACTTTATTTTCTCTGTTTATTCATTTACTTATTTTGTATTATCCTTATCTTATTTA
**Q.** Does B2 bind (RAD51 [1])?
**A.** binds

**Q.** Does B2 bind [2]?
**A.** binds

**Q.** Does B2 bind (RPA complex)?
**A.** binds

B3: 80-nt ssDNA Oligo 1 (ssDNA)
DNA: TTATGTTCATTTTTTATATCCTTTACTTTATTTTCTCTGTTTATTCATTTACTTATTTTGTATTATCCTTATCTTATTTA
**Q.** Does B3 bind (RAD51 [3])?
**A.** binds
